Read-outs that look alike come from different tables or passages of the source.
T1: TGF-beta2 (Rattus, UniProt Q07257 Q07257:331-442)
T1 sequence: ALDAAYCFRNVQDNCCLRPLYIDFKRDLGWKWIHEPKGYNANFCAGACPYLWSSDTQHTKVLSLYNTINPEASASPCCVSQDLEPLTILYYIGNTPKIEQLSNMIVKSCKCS

B1: ARC123 (ssDNA)
DNA: TGGGAGGGCGCGTTCTTCGTGGTTACTTTTAGTCCCG
modifications: 3'-3'-dT cap
B2: ARC124 (ssDNA)
DNA: CACAGGCTACGGCACGTAGAGCATCACCATGATCCTGTG
modifications: 3'-3'-dT cap
B3: ARC125 (ssDNA)
DNA: TACTCAGGGCACTGCAAGCAATTGTGGTCCCAATGGGCTGAGTA
modifications: 3'-3'-dT cap
B4: ARC77 (ssRNA)
RNA: GGAGGUUAUUACAGAGUCUGUAUAGCUGUACUCC
modifications: 2'-F all C and U, 2'-OH purines, 3'-inverted T (3T)

Columns and labels:
[1] = biological target: T2, PDGF-AB (Homo sapiens, UniProt P04085;P01127 P04085:87-211,P01127:82-190)
T2 sequence (P01127 82-190, chain 2 of 2, other chains not shown): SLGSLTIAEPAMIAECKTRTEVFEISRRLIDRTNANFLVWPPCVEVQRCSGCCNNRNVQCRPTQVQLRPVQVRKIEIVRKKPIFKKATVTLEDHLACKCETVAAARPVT

[2] = biological target: T3, PDGF-BB (Homo sapiens, UniProt P01127 P01127:82-190)
T3 sequence (P01127 82-190, one chain of several): as the sequence (P01127 82-190, chain 2 of 2, other chains not shown) above

[3] = biological target: T2, PDGF-AB; test: p237 labels ARC125 as SEQ 16, Table 3 as SEQ 17
[4] = biological target: T3, PDGF-BB; test: p237 labels ARC125 as SEQ 16, Table 3 as SEQ 17; conditions: chain copies: 2 (inferred)
[5] = biological target: T1, TGF-beta2; test: filter; values in figure only; conditions: chain copies: 2 (inferred)
Experimental: Dissociation constants for the binding of aptamers to purified human or rodent TGFβ-2 protein were determined by nitrocellulose-filter partitioning using ³²P-labeled RNA. In vitro transcribed RNA was treated with calf-intestinal alkaline phophatase (New England Biolabs) to remove 5′-triphosphates, then radio-labeled by incubation with γ-³²P-ATP and T4 polynucleotide kinase (New England Biolabs). Unincorporated label was removed by gel-filtration, and the RNAs were further purified by polyacrylamide gel electrophoresis (PAGE). Purified ³²P-labeled aptamer in water was refolded just prior to use by heating for 3 min at 95° C., followed by a 10 minute room-temperature incubation in binding buffer (50 mM Hepes, pH 7.4, 1 mM MgCl₂, 1 mM CaCl₂, 3 mM KCl, 140 mM NaCl, 0.1 mg/ml BSA, 0.01 mg/ml tRNA). The binding reactions (100 μL) were initiated by the addition of aptamer (≦0.1 nM) to excess TGFβ-2 protein (0.2-100 nM), followed by 10-30 minute equilibration at room temperature.
Nitrocellulose-filter partitioning was performed on Minifold® I, 96-well Dot-Blot manifolds (Schleicher & Schuell). Protein-bound aptamer and residual free aptamer were captured, respectively, on pre-wetted Protran nitrocellulose (Schleicher & Schuell) and Hybond-P polyvinylidene difluoride (Amersham Biosciences) filters by vacuum aspiration, and quantified by PhosphorImager (Amersham Biosciences). […]

Binder | Kd [1] [nM] | Kd [2] [nM] | Kd [3] [nM] | Kd [4] [nM] | binding result [5]
B1 | 0.1 | 0.1 | – | – | –
B2 | 0.1 | 0.1 | – | – | –
B3 | – | – | 0.1 | 0.1 | –
B4 | – | – | – | – | binds

Source: patent US20040253243, “Aptamer therapeutics useful in ocular pharmacotherapy” (published 2004)
